The target of one test is T1, IL13RA1.
T1 construct: also called IL13RA1-Fc-His (R&D Systems)
T1 chain: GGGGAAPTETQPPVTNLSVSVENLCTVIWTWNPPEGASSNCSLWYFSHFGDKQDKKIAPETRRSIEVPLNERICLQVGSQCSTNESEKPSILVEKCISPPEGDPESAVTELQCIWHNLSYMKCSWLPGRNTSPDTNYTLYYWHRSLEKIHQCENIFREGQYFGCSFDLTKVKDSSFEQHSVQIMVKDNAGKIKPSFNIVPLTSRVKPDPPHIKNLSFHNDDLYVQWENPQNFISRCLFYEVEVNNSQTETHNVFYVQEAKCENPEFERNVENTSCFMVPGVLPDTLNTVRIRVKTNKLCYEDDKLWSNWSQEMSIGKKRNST
The test is described as follows: ELISA on coated protein.

The next test concerns the target T2, SLAMF7.
T2 construct: also called SLAMF7-StrepTag; not shown: StrepTag and any linker
T2 chain: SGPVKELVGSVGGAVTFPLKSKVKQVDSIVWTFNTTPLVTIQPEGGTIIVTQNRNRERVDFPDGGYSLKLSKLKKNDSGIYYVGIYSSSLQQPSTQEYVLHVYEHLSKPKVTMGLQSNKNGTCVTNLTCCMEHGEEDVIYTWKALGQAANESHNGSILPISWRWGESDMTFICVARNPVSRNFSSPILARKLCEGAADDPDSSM
Put plainly: ELISA on coated protein. (In general: An ELISA detects its analyte on a solid surface through an enzyme-linked reagent.)

For test [1], the target named is T3, GARS, endogenous in H929 multiple myeloma cells (human, UniProt P41250 37-739, limits assumed).
T3 construct: Native protein pulled down from H929 lysates; also called Glycyl-tRNA synthetase; GlyRS
T3 sequence: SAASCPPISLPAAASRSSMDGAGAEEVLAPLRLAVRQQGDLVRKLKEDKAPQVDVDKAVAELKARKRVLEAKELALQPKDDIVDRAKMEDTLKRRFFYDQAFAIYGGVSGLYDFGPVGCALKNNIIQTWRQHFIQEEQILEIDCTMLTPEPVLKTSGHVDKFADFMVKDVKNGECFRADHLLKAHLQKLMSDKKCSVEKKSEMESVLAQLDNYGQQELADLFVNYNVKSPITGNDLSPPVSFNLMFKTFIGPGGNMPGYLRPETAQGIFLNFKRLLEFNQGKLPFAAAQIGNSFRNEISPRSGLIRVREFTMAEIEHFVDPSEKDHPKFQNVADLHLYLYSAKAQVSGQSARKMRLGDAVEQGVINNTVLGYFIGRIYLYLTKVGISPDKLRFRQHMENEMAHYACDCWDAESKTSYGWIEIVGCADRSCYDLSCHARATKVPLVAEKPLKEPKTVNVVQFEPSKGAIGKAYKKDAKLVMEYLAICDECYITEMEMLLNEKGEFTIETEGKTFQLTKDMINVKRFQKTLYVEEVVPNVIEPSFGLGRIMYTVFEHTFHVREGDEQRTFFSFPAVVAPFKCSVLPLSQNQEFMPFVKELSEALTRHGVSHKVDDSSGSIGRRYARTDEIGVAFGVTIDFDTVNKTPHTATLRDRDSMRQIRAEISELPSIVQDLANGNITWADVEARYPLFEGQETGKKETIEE
The test is described as follows: flow cytometry, H929 + vehicle; None 2.74; surface target GARS putative. For orientation: In flow cytometry, cells or beads pass a laser one at a time.

For test [2], the target named is T3, GARS, endogenous in H929 multiple …. The test is described as follows: flow cytometry, H929 + CADM1 siRNA; None 449; surface target GARS putative.
The target is the same in test [3]. Put plainly: flow cytometry, H929 + ICAM1 siRNA; None 455; surface target GARS putative.
For test [4] the target is unchanged. Put plainly: flow cytometry, H929 + PTPRG siRNA; None 490; surface target GARS putative.
For test [5] the target is unchanged. Put plainly: flow cytometry, H929 + ICAM1 siRNA; None 1.06; surface target GARS putative.
The target is the same in test [6]. The test is described as follows: flow cytometry, H929 + NT Green siRNA; None 1.35; surface target GARS putative.

B1: HW-8 chimeric rabbit-human IgG1 LA/LA/PG (antibody, V domains shown)
VH: QSLEESGGRLVTPGTPLTLTCTVSGFSLSSYAMSWVRQAPGKGLEWIGAISTGGSTTYASWAKGRFTISKTSSTTVDLKMTSLTTEDTATYFCVRHFRLWGPGTLVTISS
VL: QVLTQTPSSVSAAVGGTVTIKCQASQSIGSALAWFQQKPGQRPKLLIYRASNLASGVPSRFKGSGSGTEFALTISGVQREDAATYYCLGGAAAVWAFGAGTNVEIKR
notes: Fc-silenced (L234A/L235A/P329G) IgG1, kappa; Alexa Fluor 647-labeled in single-step flow cytometry; Cluster C-45
Regarding B1, the binding result with IL13RA1 and with SLAMF7 was “no binding (tested: 150 ng IgG1 per well)” throughout. Further, the “Cells stained (%)” value in test [1] amounted to 84.7%; in test [5], 76.3%; in test [6], 86.6%. Moreover, the “mAb binding (MFI)” value in test [2] came to 17000; in test [3] it was 11400; in test [4], 13600.

B2: HW-16 chimeric rabbit-human IgG1 LA/LA/PG (antibody, V domains shown)
VH: QSLEESGGRLVTPGTPLTLTCTASGFSLSSYAMSWVRQAPGKGLEWIGTMPTGGGTYYASWAKGRFTISKTSTTVDLQITSPTTEDTATYFCAKHWNIWGPGTLVTISS
VL: DIVLTQTPSSTSTAVGDTVTINCRASQSIGRNLAWFQQKPGQPPKLLIYRASNLASGVPSRFKGSGSRTQFTLTISGVQREDAATYYCLGSYSSSDTAFGGGTELEILR
notes: as for B1
B2: the “Cells stained (%)” value in test [1] worked out at 99.1%; in test [5], 98.1%; in test [6] it was 99.1%. Besides, the results for the “mAb binding (MFI)” value in test [2], in test [3] and in test [4] were 45900, 48900 and 41600, respectively.

B3: HW-45 chimeric rabbit-human IgG1 LA/LA/PG (antibody, V domains shown)
VH: QKQLVESGGRLVTPGTPLTLTCTVSGFSLSSYAMGWFRQAPGKGLEWIGIINSYGSTYYASWAKGRFTISKTSTTVDLKITSPTTEDTATYFCGRRIGSARFDPWGPGTLVTVSS
VL: SFVLTQPASVQVNLGQTVSLTCTADTLSRSYASWYQQKPGQAPVLLIYRDTRRPSGVPDRFSGSSSGNTATLTISGAQAGDEADYYCATSDGSGSSYRLVFGGGTQLTVTG
notes: Fc-silenced (L234A/L235A/P329G) IgG1, lambda; Alexa Fluor 647-labeled in single-step flow cytometry; Prototype of cluster C-45
Regarding B3, the “Cells stained (%)” value in test [1] is 96.8%; in test [5], 95.1%; in test [6] it was 97.9%. In addition, the “mAb binding (MFI)” value in test [2] amounted to 33400; in test [3], 20800; in test [4], 23200.

B4: HW-81 chimeric rabbit-human IgG1 LA/LA/PG (antibody, V domains shown)
VH: QKQLVESGGGLVTPGGTLTLTCTVSGFSLSSNGVSWVRQAPGKGLEYIGLIRSIGSTYYATWAKGRFTISKTSTTVDLKITSPTTEDTATYFCARGGYRNGFKLWGPGTLVTVSS
VL: QPVLTQSPSVSAALGASAKLTCTLSSAHKTYYIEWYQQQHPGKAPRYLMQLQSDGSYTKGTGVPDRFSGSSSGADRYLIISSVQAEDEADYICGVIDSAVYVFGGGTQLTVTG
notes: Fc-silenced (L234A/L235A/P329G) IgG1, lambda; Alexa Fluor 647-labeled in single-step flow cytometry; Cluster C-45
Turning to B4, the “Cells stained (%)” value in test [1] turned out to be 99.7%; in test [5], 99.1%; in test [6], 99.7%. The “mAb binding (MFI)” value was determined as 696000 in test [2], 640000 in test [3] and 630000 in test [4].

The record behind these values is patent US20260049134A1 (UNIVERSITY OF FLORIDA RESEARCH FOUNDATION, published 2026).
